These results are taken from patent publication US20140242083A1 (Hoffmann-La Roche, published 2014).

For assay [1], the target named is T1, Cynomolgus MCSP D3 (cynomolgus, UniProt Q6UVK1 1582-2224 (human entry), limits assumed).
T1 construct: Soluble analyte in SPR
T1 chain: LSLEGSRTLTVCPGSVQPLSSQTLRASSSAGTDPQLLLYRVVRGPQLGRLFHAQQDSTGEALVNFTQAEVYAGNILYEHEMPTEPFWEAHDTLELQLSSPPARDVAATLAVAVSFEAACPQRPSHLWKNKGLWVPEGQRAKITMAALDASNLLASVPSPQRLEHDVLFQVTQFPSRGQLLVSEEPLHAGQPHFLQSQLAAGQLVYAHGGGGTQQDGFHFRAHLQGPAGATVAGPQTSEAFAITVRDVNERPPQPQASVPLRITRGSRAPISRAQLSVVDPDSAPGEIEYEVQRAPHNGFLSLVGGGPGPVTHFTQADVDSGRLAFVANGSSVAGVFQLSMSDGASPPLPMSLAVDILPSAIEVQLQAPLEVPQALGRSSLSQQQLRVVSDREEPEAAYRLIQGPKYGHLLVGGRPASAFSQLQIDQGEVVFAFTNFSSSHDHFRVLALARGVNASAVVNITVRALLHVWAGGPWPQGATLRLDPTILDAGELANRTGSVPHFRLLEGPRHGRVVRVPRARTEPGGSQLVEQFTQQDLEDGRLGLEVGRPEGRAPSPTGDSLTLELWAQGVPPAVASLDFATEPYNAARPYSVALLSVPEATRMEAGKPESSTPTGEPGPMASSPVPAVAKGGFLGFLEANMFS
Put plainly: SPR Biacore T200, 25 C, IgG captured on anti-human Fab, MCSP D3 as analyte, 1:1 Langmuir fit. As for the experimental part:
(§1) IgGs were captured on a CM5 sensorchip surface with immobilized anti human Fab. Capture IgG was coupled to the sensorchip surface by direct immobilization of around 10,000 resonance units (RU) at pH 5.0 using the standard amine coupling kit (Biacore, Freiburg/Germany). IgGs are captured for 60 s at 30 nM with 10 μl/min. Human and cynomolgus MCSP D3 were passed at a concentration of 0.49-1000 nM with a flowrate of 30 μl/min through the flow cells over 180 s. The dissociation is monitored for 210 s. Bulk refractive index differences were corrected for by subtracting the response obtained on reference flow cell. Here, the antigens were flown over a surface with immobilized anti-human Fab antibody but on which HBS-EP has been injected rather than anti MCSP IgGs.

Assay [2] concerns the target T2, Human MCSP D3 (human, UniProt Q6UVK1 1582-2224).
T2 construct: Soluble analyte in SPR; The selection antigen was hu-MCSP(D3 domain)-avi-his; also called hu-MCSP(D3 domain)-avi-his
T2 sequence: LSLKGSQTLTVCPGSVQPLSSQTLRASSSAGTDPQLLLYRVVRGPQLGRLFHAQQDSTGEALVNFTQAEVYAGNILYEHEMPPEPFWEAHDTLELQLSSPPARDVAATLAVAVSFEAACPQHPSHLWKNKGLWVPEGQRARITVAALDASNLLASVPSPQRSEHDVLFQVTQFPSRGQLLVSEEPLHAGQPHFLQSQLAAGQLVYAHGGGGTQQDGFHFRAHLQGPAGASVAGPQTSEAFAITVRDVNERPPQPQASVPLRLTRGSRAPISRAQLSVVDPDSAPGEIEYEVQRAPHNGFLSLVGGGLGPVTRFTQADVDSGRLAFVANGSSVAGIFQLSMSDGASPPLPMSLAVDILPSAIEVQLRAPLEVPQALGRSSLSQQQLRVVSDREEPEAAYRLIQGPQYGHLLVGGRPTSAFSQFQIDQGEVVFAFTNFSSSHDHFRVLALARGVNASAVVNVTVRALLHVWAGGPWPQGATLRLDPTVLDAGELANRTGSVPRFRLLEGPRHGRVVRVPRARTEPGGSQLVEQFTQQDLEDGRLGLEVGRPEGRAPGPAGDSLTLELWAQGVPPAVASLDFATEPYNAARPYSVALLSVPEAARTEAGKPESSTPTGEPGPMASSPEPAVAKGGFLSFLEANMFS
The description is as above. As for the experimental part:
as §1

The target of assay [3] is T3, human MCSP D3 domain expression construct (C-terminal part, N-terminal FLAG-tag) in HEK-EBNA cells (human, UniProt Q6UVK1 1582-2224, limits assumed).
T3 construct: 'A similar construct' to the cynomolgus one; it is not clear whether the signal peptide and FLAG-tag are part of it; also called corresponding human expression construct; human counterpart
T3 sequence: T2 sequence
Put plainly: flow cytometry titration of LC007 on HEK-EBNA cells expressing the construct; untreated EBNA cells as control.

For assay [4], the target named is T4, cynomolgus MCSP D3 domain expression construct (C-terminal part, N-terminal FLAG-tag) in HEK-EBNA cells (cynomolgus, UniProt Q6UVK1 1582-2224 (human entry), limits assumed).
T4 construct: Tested by flow cytometry on transfected cells; the membrane anchor is not described; also called cynomolgus construct; cynomolgus antigen
T4 chain: T1 chain
The description is as above.

In assay [5] the target is T5, Construct 1 (CSPG repeat 15 of human MCSP with the natural transmembrane domain) (human, UniProt Q6UVK1 2044-2246).
T5 construct: Expressed on HEK-EBNA cells; contains the original transmembrane region; also called MCSP repeat 15 construct
T5 sequence: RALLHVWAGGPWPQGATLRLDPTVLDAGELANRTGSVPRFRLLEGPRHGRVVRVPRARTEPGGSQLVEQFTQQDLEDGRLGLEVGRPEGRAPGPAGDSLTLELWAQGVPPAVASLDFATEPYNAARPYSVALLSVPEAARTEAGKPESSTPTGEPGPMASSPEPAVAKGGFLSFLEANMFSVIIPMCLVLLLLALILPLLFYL
Put plainly: FACS titration of LC007 on HEK-EBNA cells transfected with the construct; mock-transfected cells as control.

For assay [6], the target named is T6, human MCSP (melanoma chondroitin sulfate proteoglycan) on melanoma cells (human, UniProt Q6UVK1 30-2322).
T6 construct: Native MCSP on the human melanoma lines Colo38, A2058 and A375; also called surface MCSP; CSPG4
T6 sequence (Q6UVK1 30-2322 limits assumed): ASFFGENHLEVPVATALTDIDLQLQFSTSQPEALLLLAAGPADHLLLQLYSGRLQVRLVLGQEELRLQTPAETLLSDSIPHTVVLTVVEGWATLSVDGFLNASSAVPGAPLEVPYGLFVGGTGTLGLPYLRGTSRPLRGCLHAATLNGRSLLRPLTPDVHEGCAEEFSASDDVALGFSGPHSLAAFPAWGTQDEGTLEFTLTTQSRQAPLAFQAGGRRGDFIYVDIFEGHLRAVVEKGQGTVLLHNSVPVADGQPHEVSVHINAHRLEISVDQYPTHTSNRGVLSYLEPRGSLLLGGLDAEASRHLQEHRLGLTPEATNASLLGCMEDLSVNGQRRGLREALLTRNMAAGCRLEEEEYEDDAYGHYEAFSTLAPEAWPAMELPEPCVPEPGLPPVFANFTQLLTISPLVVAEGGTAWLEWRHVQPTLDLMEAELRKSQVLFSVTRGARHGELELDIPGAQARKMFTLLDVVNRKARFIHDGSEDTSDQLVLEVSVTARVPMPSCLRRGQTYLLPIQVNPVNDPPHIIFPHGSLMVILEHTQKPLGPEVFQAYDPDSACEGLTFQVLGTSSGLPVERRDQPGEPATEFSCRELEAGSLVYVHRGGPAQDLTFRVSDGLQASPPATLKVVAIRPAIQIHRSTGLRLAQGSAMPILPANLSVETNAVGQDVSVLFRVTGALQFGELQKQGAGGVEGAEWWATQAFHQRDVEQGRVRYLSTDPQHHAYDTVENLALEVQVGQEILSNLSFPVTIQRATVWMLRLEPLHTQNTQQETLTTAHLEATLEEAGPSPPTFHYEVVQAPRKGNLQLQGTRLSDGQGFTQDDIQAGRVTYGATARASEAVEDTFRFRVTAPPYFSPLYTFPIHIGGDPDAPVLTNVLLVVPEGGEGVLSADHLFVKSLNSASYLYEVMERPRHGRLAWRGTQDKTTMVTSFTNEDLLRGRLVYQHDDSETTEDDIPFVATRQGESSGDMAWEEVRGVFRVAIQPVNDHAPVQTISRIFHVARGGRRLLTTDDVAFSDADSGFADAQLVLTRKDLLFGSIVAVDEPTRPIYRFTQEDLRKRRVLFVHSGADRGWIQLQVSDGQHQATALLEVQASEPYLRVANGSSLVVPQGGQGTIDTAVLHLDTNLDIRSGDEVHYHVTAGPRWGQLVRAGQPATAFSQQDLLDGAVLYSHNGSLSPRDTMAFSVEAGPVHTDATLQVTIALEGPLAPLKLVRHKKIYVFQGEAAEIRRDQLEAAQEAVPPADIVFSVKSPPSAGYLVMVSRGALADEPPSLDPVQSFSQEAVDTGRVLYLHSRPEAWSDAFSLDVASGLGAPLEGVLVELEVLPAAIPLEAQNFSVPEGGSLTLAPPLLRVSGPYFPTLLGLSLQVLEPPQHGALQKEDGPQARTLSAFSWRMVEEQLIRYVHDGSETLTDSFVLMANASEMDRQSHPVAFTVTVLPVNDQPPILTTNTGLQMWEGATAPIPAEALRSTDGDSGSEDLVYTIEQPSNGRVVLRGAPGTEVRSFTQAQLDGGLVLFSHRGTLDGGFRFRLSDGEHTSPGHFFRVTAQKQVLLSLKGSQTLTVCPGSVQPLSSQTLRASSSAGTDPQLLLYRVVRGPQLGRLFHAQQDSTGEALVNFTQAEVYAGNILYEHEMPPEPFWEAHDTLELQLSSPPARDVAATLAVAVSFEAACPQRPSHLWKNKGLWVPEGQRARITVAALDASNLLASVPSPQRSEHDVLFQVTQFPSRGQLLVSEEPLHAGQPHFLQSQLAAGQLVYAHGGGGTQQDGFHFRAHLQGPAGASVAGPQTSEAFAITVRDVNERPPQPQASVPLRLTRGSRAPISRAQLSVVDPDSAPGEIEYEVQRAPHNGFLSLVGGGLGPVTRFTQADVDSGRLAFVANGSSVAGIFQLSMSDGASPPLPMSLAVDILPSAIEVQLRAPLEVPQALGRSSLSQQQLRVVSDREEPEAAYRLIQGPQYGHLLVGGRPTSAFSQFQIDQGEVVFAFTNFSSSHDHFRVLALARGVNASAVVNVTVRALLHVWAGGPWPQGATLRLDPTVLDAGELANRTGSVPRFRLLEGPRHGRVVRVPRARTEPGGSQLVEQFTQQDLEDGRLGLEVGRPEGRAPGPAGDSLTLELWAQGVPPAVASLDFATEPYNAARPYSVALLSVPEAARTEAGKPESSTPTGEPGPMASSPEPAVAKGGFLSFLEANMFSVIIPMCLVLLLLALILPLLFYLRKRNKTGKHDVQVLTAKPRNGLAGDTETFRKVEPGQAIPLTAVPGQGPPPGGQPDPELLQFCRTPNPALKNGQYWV
Kind of assay: FACS titration on Colo38 melanoma cells, FITC anti-human IgG Fc secondary antibody. The protocol:
(§2) Binding activity was determined by the following method. Target cells were detached from culture flask with cell dissociation buffer, counted and checked for viability. Cells were resuspended and adjusted to 1.111×10⁶ (viable) cells/ml in PBS-0.1% BSA. 180 μl of this suspension were transferred to each well (200,000 cells/well) in a round bottom 96-well-plate, centrifuged for 4 min, at 400 g, and resuspended. 20 μl of antibody dilutions in PBS-0.1% BSA (from 10 μg/ml to […]) were added to each well. The samples were centrifuged for 4 min, at 400 g, and resuspended. Secondary antibody, FITC-conjugated AffiniPure F(ab′)2 fragment goat anti-human IgG Fcg Fragment Specific (Jackson Immuno Research Lab #109-096-098)), was added and the sample centrifuged for 4 min, at 400 g, and resuspended. Fluorescence was measured in flow cytometer (e.g. FACS Canto II). Antibody 9.2.27, described in Morgan A C Jr, Galloway D R, Reisfeld R A. Hybridoma. 1981; 1(1):27-36.; GenBank Accession Numbers: GI:20797193 and GI:20797189 for light and heavy chain respectively, was used as a reference (FIG. 2). Human melanoma cell-lines Colo38, A2058, and A375 were used. Giacomini et al. 1985 (for Colo38). Marquardt H, Todaro G J. J Biol. Chem. 1982 May 10; 257(9):5220-5 (for A2058). Geiser M, Schultz D, Le Cardinal A, Voshol H, Garcia-Echeverria C. Cancer Res. 1999 Feb. 15; 59(4):905-10 (for A375).

The target of assay [7] is T6, human MCSP (melanoma chondroitin …). Kind of assay: FACS titration on A2058 melanoma cells, FITC anti-human IgG Fc secondary antibody. As for the experimental part: as §2
In assay [8] the target is T7, Construct 4 (CSPG repeat 12-15 of human MCSP) (human, UniProt Q6UVK1 1702-2246).
T7 construct: Expressed on HEK-EBNA cells; contains the original transmembrane region
T7 sequence: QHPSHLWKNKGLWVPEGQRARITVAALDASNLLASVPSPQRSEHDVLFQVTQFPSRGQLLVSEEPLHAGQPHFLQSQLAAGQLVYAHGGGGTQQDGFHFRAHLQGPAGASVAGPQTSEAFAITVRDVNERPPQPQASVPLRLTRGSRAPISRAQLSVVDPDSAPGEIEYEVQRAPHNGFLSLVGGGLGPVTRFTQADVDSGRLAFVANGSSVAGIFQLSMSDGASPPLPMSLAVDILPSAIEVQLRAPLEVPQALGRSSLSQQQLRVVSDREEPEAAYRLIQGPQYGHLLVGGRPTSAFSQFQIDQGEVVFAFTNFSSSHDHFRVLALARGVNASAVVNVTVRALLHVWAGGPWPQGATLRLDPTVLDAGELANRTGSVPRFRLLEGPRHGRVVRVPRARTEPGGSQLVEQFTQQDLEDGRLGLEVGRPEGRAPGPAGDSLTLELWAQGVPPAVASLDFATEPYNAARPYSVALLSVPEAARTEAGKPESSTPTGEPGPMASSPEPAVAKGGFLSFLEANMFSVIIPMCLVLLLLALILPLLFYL
Put plainly: FACS titration of LC007 on HEK-EBNA cells transfected with the construct; mock-transfected cells and isotype as controls.

Assay [9] concerns the target T6, human MCSP (melanoma chondroitin …). Put plainly: FACS titration on A375 melanoma cells, FITC anti-human IgG Fc secondary antibody. The protocol: as §2

B1: M4-3 ML2 (E10/G3) (antibody, human IgG1, V domains shown)
VH: QVQLQESGPGLVKPSQTLSLTCTVSGGSITSGYYWNWIRQHPGKGLEWIGYITYDGSNNYNPSLKSRVTISRDTSKNQFSLKLSSVTAADTAVYYCADFDYWGQGTLVTVSS
VL: DIQMTQSPSSLSASVGDRVTITCRASYGIRGYLNWYQQKPGKAPKLLIYYTSSLHSGVPSRFSGSGSGTDFTLTISSLQPEDFATYHCQQYSALPWTFGQGTKVEIK
For B1, the Kd came out at 12.2 nM in [1] and 5.5 nM in assay [2].

B2: chimeric antibody LC007 (antibody, human IgG1, kappa, V domains shown)
VH: EVQLQESGPGLVKPSQSLSLTCSVTGYSITSGYYWNWIRQFPGNKLEWMGYITYDGSNNYNPSLKNRISITRDTSKNQFFLKLNSVTTEDTATYYCADFDYWGQGTTLTVSS
VL: DIVLTQSPSSLSASLGDRVTISCSASQGIRNYLNWYQQRPDGTVKLLIYYTSSLHSGVPSRFSGSGSGTDYSLTISNLEPEDIATYYCQQYSKLPWTFGGGTKLEIKR
notes: all such entries are written under the chimeric antibody; also called LC007 antibody; LC007 wt
For B2, the 50% effective concentration (EC50 (read off the curve)) in assay [3] was around 0.08 µg/mL; in [4], around 0.1 µg/mL; in assay [6] it was around 0.05 µg/mL; in [7] it was around 0.03 µg/mL; in [8], around 0.3 µg/mL; in assay [9] it was around 0.05 µg/mL. Further, the binding result in assay [5] is “no binding (tested: 5 ug/ml)”.

The Kd is the equilibrium constant for the complex coming apart. Lower therefore signals a tighter complex. As usually defined, the EC50 (read off the curve) is the concentration at which the effect is half-maximal. A lower EC50 (read off the curve) goes with an effect from little substance.
